From PMC4768215, “Targeting surface-layer proteins with single-domain antibodies: a potential therapeutic approach against Clostridium difficile-associated disease” (Applied Microbiology and Biotechnology, 2015) come the findings set out here.

Experiment [1] addresses T1, SLP on cells of C. difficile strain BI-1 (ribotype 027) (Clostridioides difficile BI-1 (ribotype …, UniProt A0A9R0BMB3, strain)).
T1 construct: LMW subunit of the surface layer protein (from the precursor SlpA), C. difficile strain BI-1, ribotype 027; HMW subunit of the surface layer protein (from the precursor SlpA), C. difficile strain BI-1, ribotype 027; Whole cells were the antigen; source: endogenous, on formalin-fixed C. difficile BI-1 cells
The experiment in a line: ELISA; whole cell ELISA: formalin-fixed C. difficile cells coated on MaxiSorp plates, His6-tagged VHH at 10 μg/ml in PBS-T, 37 °C, 1 h, detected with anti-His6-HRP. As to conditions: one partner purified. In general terms: An ELISA detects its analyte on a solid surface through an enzyme-linked reagent.

For experiment [2], the target named is T2, SLP on cells of C. difficile strain R20291 (ribotype 027) (Clostridioides difficile R20291 …, UniProt A0A9R0BMB3, strain).
T2 construct: LMW subunit of the surface layer protein (from the precursor SlpA), C. difficile strain R20291, ribotype 027; HMW subunit of the surface layer protein (from the precursor SlpA), C. difficile strain R20291, ribotype 027; Whole cells were the antigen; source: endogenous, on formalin-fixed C. difficile R20291 cells
The experiment is described as above. As to conditions: one partner purified.

Experiment [3] deals with T3, SLP on cells of C. difficile strain 196 (ribotype 027) (Clostridioides difficile 196 (ribotype …, UniProt A0A9R0BMB3, strain)).
T3 construct: LMW subunit of the surface layer protein (from the precursor SlpA), C. difficile strain 196, ribotype 027; HMW subunit of the surface layer protein (from the precursor SlpA), C. difficile strain 196, ribotype 027; Whole cells were the antigen; source: endogenous, on formalin-fixed C. difficile 196 cells
The experiment is described as above. As to conditions: one partner purified.

In experiment [4] the target is T4, SLP on cells of C. difficile strain BI-7 (ribotype 027) (Clostridioides difficile BI-7 (ribotype …, UniProt A0A9R0BMB3, strain)).
T4 construct: LMW subunit of the surface layer protein (from the precursor SlpA), C. difficile strain BI-7, ribotype 027; HMW subunit of the surface layer protein (from the precursor SlpA), C. difficile strain BI-7, ribotype 027; Whole cells were the antigen; source: endogenous, on formalin-fixed C. difficile BI-7 cells
The experiment is described as above. As to conditions: one partner purified.

For experiment [5], the target named is T5, QCD-32g58 LMW SLP (low-molecular-weight subunit of the QCD-32g58 surface layer protein) (Clostridioides difficile QCD-32g58 …, UniProt A0A9R0BMB3, strain).
T5 construct: low-molecular-weight (LMW) subunit of the surface layer protein, cut from the precursor SlpA by Cwp84, C. difficile strain QCD-32g58 (ribotype 027); predicted mass 33.9 kDa; also called QCD-32g58 SLP LMW subunit; LMW subunit; source: purified from C. difficile QCD-32g58 (low-pH glycine extraction, minor SEC peak at about 15 ml); in the Western blot the LMW band of the extracted SLPs
The experiment in a line: SPR; Biacore 3000; SEC-purified QCD-32g58 LMW SLP subunit amine-coupled to a CM5 chip; single-concentration screen, 200 nM VHH; 25 °C, 10 mM HEPES pH 7.4, 150 mM NaCl, 3 mM EDTA, 0.005 % P20. As to conditions: both partners purified.

Experiment [6] deals with T6, QCD-32g58 SLP (surface layer protein of C. difficile strain QCD-32g58, HMW and LMW subunits) (Clostridioides difficile QCD-32g58 …, UniProt A0A9R0BMB3, strain).
T6 construct: low-molecular-weight (LMW) subunit of the surface layer protein, cut from the precursor SlpA by Cwp84, C. difficile strain QCD-32g58 (ribotype 027); predicted mass 33.9 kDa; high-molecular-weight (HMW) subunit of the surface layer protein, cut from the precursor SlpA by Cwp84, C. difficile strain QCD-32g58 (ribotype 027); predicted mass 44.2 kDa; Both subunits come from one precursor, SlpA; also …
The experiment can be described thus: SPR; Biacore 3000; SEC-purified QCD-32g58 SLP amine-coupled to a CM5 chip, VHH monomer fractions injected at various concentrations; 25 °C, 10 mM HEPES pH 7.4, 150 mM NaCl, 3 mM EDTA, 0.005 % P20; KD by steady-state analysis. The following applies: both partners purified.

The target of experiment [7] is T7, 630 SLP (surface layer protein of C. difficile strain 630, HMW and LMW subunits) (Clostridioides difficile 630 (ribotype …, UniProt Q183M8, strain)).
T7 construct: low-molecular-weight (LMW) subunit of the surface layer protein, cut from the precursor SlpA by Cwp84, C. difficile strain 630 (ribotype 012); predicted mass 34.2 kDa; high-molecular-weight (HMW) subunit of the surface layer protein, cut from the precursor SlpA by Cwp84, C. difficile strain 630 (ribotype 012); predicted mass 39.5 kDa; Both subunits come from one precursor, SlpA; source: purified …
The experiment in a line: SPR; Biacore 3000; 630 SLP immobilised on a CM5 chip, VHHs injected at various concentrations; data not shown. The following applies: both partners purified. A general note: In SPR one partner is held on a chip, and binding of the other changes the refractive index at the surface.

Experiment [8] has as its target T7, 630 SLP (surface layer protein of C. …). The experiment can be described thus: ELISA; monoclonal phage ELISA: phage-displayed VHHs on immobilized SLPs. The following applies: one partner purified.
Experiment [9] deals with T6, QCD-32g58 SLP (surface layer protein of …). The experiment in a line: SPR; Biacore 3000; fresh QCD-32g58 SLP surface on a CM5 chip, a single injection of each VHH (50 mM NaOH regeneration destroyed the surface); 25 °C, 10 mM HEPES pH 7.4, 150 mM NaCl, 3 mM EDTA, 0.005 % P20; KD from kinetic rate constants. As to conditions: both partners purified.
Experiment [10] has the same target. The experiment in a line: SPR; Biacore 3000; SEC-purified QCD-32g58 SLP amine-coupled to a CM5 chip, VHH monomer fractions injected at various concentrations; 25 °C, 10 mM HEPES pH 7.4, 150 mM NaCl, 3 mM EDTA, 0.005 % P20, 20 μl/min; KD from kinetic rate constants. As to conditions: both partners purified.

B1: SLP_VHH2 (VHH)
VHH: QVKLEESGGGLVQPGGSLRLSCAASGGTFTNYAMAWFRQTPGNDREFVGIISQKGGRTYYADSVKGRFSVSRDNAKNTAYLQMNSLKPEDTAVYYCAAGDSSYYYTRSRYDIWGQGTQVTVSS
notes: From an immune llama phage display library panned on QCD-32g58 SLP; source: monomeric SEC fractions for SPR; not shown: His6, C-terminal, kept
The Kd is the concentration at which binding is half-saturated. A higher Kd goes with weaker binding. The koff is a measure of how fast the partners let go of each other. A higher koff goes with fast dissociation. The kon is the rate constant with which the complex forms. Read a high kon as fast association. As to B1, the binding result in experiment [1], in experiment [2], in [3] and in [4] was “binds” throughout. Also, the Kd in experiment [5] is 90 nM; in [6], 230 nM; in experiment [7], 1000 nM. This molecule showed a koff in experiment [5] of 0.013 s⁻¹. In experiment [5], this molecule had a kon of 150000 M⁻¹ s⁻¹.

B2: SLP_VHH50 displayed on phage (VHH)
VHH: QVKLEESGGGLVQPGGSLRLSCAASGFTLDYYTIGWFRQAPGKEREGVACISSDDRTYYVDSVKGRFAISRDNVKNTVYLQMNNLKPEDTAVYYCASKESVFLIATMKGCAPGHDDYWGQGTQVTVSS
notes: as the VHH of m9
As to B2, the binding result in experiment [8] is “no binding”.

B3: SLP_VHH22 displayed on phage (VHH)
VHH: QVQLVESGGGLVQPGGSLRLSCAASGFTLDSYAIGWFRQAPGKEHEGISCISSNGGSTYYTDSVKGRFTISRDNAKNTVYLQMNSLESEDSAVYYCATVRRCSSLDMALGALATRTKGYDYWGQGTQVTVSS
notes: as the VHH of m4
In the case of B3, the binding result in [8] is “no binding”.

B4: SLP_VHH49 displayed on phage (VHH)
VHH: QVKLEESGGGLVQAGGSLRLSCAASEGAFSDALSRHAAGWFRQAPGKEREFVAAISWNGANTDYKNSVNNRFTISRDTSKNTVYLQMNSLKPEDTAVYYCAAKNEPSWISRIYYRGLEYDYWGQGTQVTVSS
notes: as the VHH of m8
B4: the binding result in [8] was “no binding”.

B5: SLP_VHH12 (VHH)
VHH: QVQLVESGGGLVQAGDSLRLSCAASGGTFSSYAVGWFRQAPGKERQFVAAISWSGRSTEYADSVKGRFTISRDNAKNTVYLQMNSLQPDDTGVYYCAADWSHPENKAELLRLRLWVLSAESSDYWGQGTQVTVSS
notes: as for B1
For the molecule B5, the binding result was “binds” in experiment [1]; “binds” in experiment [2]; “binds” in experiment [3]; “binds” in experiment [4]; “no binding” in experiment [7]. The Kd in experiment [9] is 3 nM; in experiment [5], 1 nM. Also, the koff came out at 0.00034 s⁻¹ in experiment [9] and 0.00012 s⁻¹ in [5]. Besides, the kon in [9] was found to be 120000 M⁻¹ s⁻¹; in experiment [5], 140000 M⁻¹ s⁻¹.

B6: SLP_VHH12 displayed on phage (VHH)
VHH: QVQLVESGGGLVQAGDSLRLSCAASGGTFSSYAVGWFRQAPGKERQFVAAISWSGRSTEYADSVKGRFTISRDNAKNTVYLQMNSLQPDDTGVYYCAADWSHPENKAELLRLRLWVLSAESSDYWGQGTQVTVSS
notes: as the VHH of m3
Consider B6, for which, in experiment [8], the binding result is reported as “no binding”.

B7: SLP_VHH23 (VHH)
VHH: QVQLVESGGGLVQAGGSLRLSCAASGRTFSSYAVGWFRQAPGKEREFVAAISWSGGYTDYADSVKGRFTISRDNAKNTVYLQMNNLKPEDTAVYYCAADWSHPENKAELLRLRLWVLSAESSDDWGQGTQVTVSS
notes: as for B1
Regarding B7, the binding result was “binds” in experiment [1]; “binds” in experiment [2]; “binds” in experiment [3]; “binds” in experiment [4]; “no binding” in [7]. Besides, the Kd in experiment [9] worked out at 4 nM; in experiment [5], 3 nM. Moreover, the koff was determined as 0.00037 s⁻¹ in experiment [9] and 0.00032 s⁻¹ in [5]. For the same molecule, the kon in experiment [9] was 94000 M⁻¹ s⁻¹; in experiment [5], 110000 M⁻¹ s⁻¹.

B8: SLP_VHH23 displayed on phage (VHH)
VHH: QVQLVESGGGLVQAGGSLRLSCAASGRTFSSYAVGWFRQAPGKEREFVAAISWSGGYTDYADSVKGRFTISRDNAKNTVYLQMNNLKPEDTAVYYCAADWSHPENKAELLRLRLWVLSAESSDDWGQGTQVTVSS
notes: as the VHH of m5
With B8, the binding result in experiment [8] was “no binding”.

B9: SLP_VHH46 (VHH)
VHH: QVKLEESGGGLVQAGGSLRLSCADSERTFRIYTMAWFRQAPGKERDFVAAISWSGGSTYYADSVKGRFTISRDNAKNTVYLPMNSLKPDDTAVYYCASGGVLSTGSQSDSEYDFWGQGTQVTVSS
notes: as for B1
For the molecule B9, the Kd was determined as 3 nM in experiment [10] and 2 nM in experiment [5]. Besides, the figures for the koff in [10] and in experiment [5] were 0.00034 s⁻¹ and 0.00032 s⁻¹, respectively. Also, the kon in [10] was found to be 110000 M⁻¹ s⁻¹; in experiment [5] it was 150000 M⁻¹ s⁻¹. Besides, the binding result in [1] was “binds”; in experiment [2], “binds”; in experiment [3], “binds”; in [4], “binds”; in experiment [7] it was “no binding”.

B10: SLP_VHH46 displayed on phage (VHH)
VHH: QVKLEESGGGLVQAGGSLRLSCADSERTFRIYTMAWFRQAPGKERDFVAAISWSGGSTYYADSVKGRFTISRDNAKNTVYLPMNSLKPDDTAVYYCASGGVLSTGSQSDSEYDFWGQGTQVTVSS
notes: as the VHH of m7
In the case of B10, the binding result in [8] is on record as “no binding”.

B11: SLP_VHH5 (VHH)
VHH: QVKLEESGGGLVQAGGSLRLSCAASRLTFSTYHMGWFRQAPGKEREFVAALSWSGGTTYYADSVKGRFGISRDNAKNTVYLQMNSLKPEDTAVYYCASGGVLATMNSDEYDYWGQGTQVTVSS
notes: as for B1
With B11, the Kd in [10] was found to be 6 nM; in experiment [5], 3 nM. Also, the figures for the koff in [10] and in [5] were 0.00046 s⁻¹ and 0.00041 s⁻¹, respectively. Moreover, the kon worked out at 82000 M⁻¹ s⁻¹ in experiment [10] and 140000 M⁻¹ s⁻¹ in experiment [5]. Moreover, the binding result in experiment [1], in experiment [2], in [3] and in experiment [4] was “binds” each time.
